B2: tail sheath protein gp39 (natural protein, phage Mu, UniProt P79678 1-495, looked up)
chain: MSDISFNAIPSDVRVPLTYIEFDNSNAVSGTPAPRQRVLMFGQSGSKASAAPNVPVRIRSGSQASAAFGQGSMLALMADAFLNANRVAELWCIPQGNGTGNAAVGEISLSGTAGENGSLVTYIAGQRLAVSVAAGATGAALADLLVARIKGQPDLPVTAEVRADSGDDDTHADVVLSAKFTGALSAVDVRWNYYAGETTPYGIITAFKAASGKNGNPDISASIAGMGDLQYKYIVMPYTDEPNLNLLRTELQERWGPVNQADGFAVTVLSGTYGDISTFGVSRNDHLISCMGIAGAPEPSYLYAATLCAVASQALSIDPARPLQTLTLPGRMPPAVGDRFTWSERNALLFDGISTFNVNDGGEMQIERMITMYRTNKYGDSDPSYLNVNTIATLSYLRYSLRTRITQKFPNYKLASDGTRFATGQAVVTPSVIKTELLALFEEWENAGLVEDFDTFKEELYVARNKDDKDRLDVLCGPNLINQFRIFAAQVQFIL
notes: tail sheath protein gp39 of myophage Mu, as it stands in the virion; Hexameric rings, 30 of them stacked in the tail; Model deposited here; source: phage Mu virions grown on E. coli (ATCC 23724), purified (PEG 8000/NaCl precipitation, CsCl gradient)
B3: tube initiator protein gp43 (natural protein, phage Mu, UniProt P08557 1-495, looked up)
chain: MFEDALNAVNAVRDKTGGGRKTTGKGTFRNVPFLVIEEQKQAGGRRLVKREYPLRDTGGVNDLGKKLRSRTFSACILNSNAETARDEAGALMDALDAPGSGELVHPDFGTVDVMVDSWECRTKADELNYYAFTVTVYPSLQDTAPDAETDTSAAVPAQAVAVTGSLGDTLSSVWQTVKDGTAAATAVMEAVTGVIDDISDAVDNLGVTQTVSGLMGSLSAMKGSVTSLINQPAMLASSLMGALSGVSSLCDTRTAFSTWNRLAQRFERRHAATAGRQGTITTSYNSPVAEKNIATLNYVMLAAAQTYRAEAASQALTAALDFSRRMDNAARAPVLDAPSTTTGTASGASSTSATVTQGQLQLTAITPDGGFSQVSFSDSGTATPPVFESVSDIEKTTAMLGAALDSVILTASEQGFSTDSVQLTQLRLLVVADLEKRGLQLAGSESHHLPETLPAMVALYRFTGNSRNWQRLARRNGISNPLFVPGGVSIEVINE
notes: tube initiator protein gp43 (N protein, DNA circularization protein) of myophage Mu, as it stands in the virion; Hexamer; Model deposited here; also called N protein; DNA circularization protein; source: phage Mu virions grown on E. coli (ATCC 23724), purified (PEG 8000/NaCl precipitation, CsCl gradient)

What was measured:
Assay in all cases: cryo-EM structure; purified phage Mu virions in the extended state (native phage) in phage buffer (10 mM MgCl2, 5 mM NaCl, 10 mM Tris-HCl, pH 7.4); icosahedral, symmetry-mismatch and local reconstruction; 3.2 Å (3-fold capsid), 3.4 Å (portal-adaptor), 3.5 Å (terminator-tail), 3.3 Å (baseplate)
[1] = target: major capsid protein (MCP) gp34 (phage Mu)
[2] = target: tail terminator protein gp37 (phage Mu)
[3] = target: adaptor protein gp36 (phage Mu)
[4] = target: tape measure protein (TMP) gp42 (phage Mu)
[5] = target: the molecule itself
tail sheath protein gp39 = target: B2; details: both partners purified
[6] = target: B3; details: both partners purified

With “major capsid protein (MCP) gp34 (natural protein)” the stoichiometry N [1] was 415.

Molecule “tail terminator protein gp37 (natural protein)” has a stoichiometry N [2] of 6.

Work on adaptor protein gp36 (natural protein) yielded a stoichiometry N [3] of 12.

“tape measure protein (TMP) gp42 (natural protein)” showed a stoichiometry N [4] of 3.

B1: G(+) type fiber protein gp49 (natural protein, phage Mu, UniProt Q9T1V0 1-504, looked up)
chain: MFYIDNDSGVTVMPPVSAQRSAIVRWFSEGDGNNVITWPGMDWFNIVQAELLNTLEEAGIQPDKTKLNQLALSIKAIMSNNALLIKNNLSEIKTAGASAQRTARENLDIYDASLNKKGLVQLTSATDSPSETLAATAKAVKIAMDNANARLAKDRNGADIPNKPLFIQNLGLQETVNRARNAVQKNGDTLSGGLTFENDSILAWIRNTDWAKIGFKNDADSDTDSYMWFETGDNGNEYFKWRSKQSTTTKDLMNLKWDALSVLVNAIVNGEVISKSANGLRIAYGNYGFFIRNDGSNTYFMLTNSGDNMGTYNGLRPLWINNATGAVSMGRGLNVSGDTLSDRFAINSSNGMWIQMRDNNAIFGKNIVNTDSAQALLRQNHADRKFMIGGLGNKQFGIYMINNSRTANGTDGQAYMDNNGNWLCGAQVIPGNYANFDSRYVRDVRLGTQSLTGGLSRDYKAPSGHVITGFHTNGDWEMQGGDDKVYIRPVQKNINGTWYNVASA
notes: G(+) type tail fiber protein gp49 of myophage Mu, as it stands in the virion; only the N-terminus was modelled; Trimer; six fibers in the baseplate; Model deposited here; source: phage Mu virions grown on E. coli (ATCC 23724), purified (PEG 8000/NaCl precipitation, CsCl gradient)
For B1, the “stoichiometry N” value [5] was 3.

With B2 the “stoichiometry N” value [5] was 6.

B3 was tested, and the “stoichiometry N” value [5] was 6.

B4: tail tube protein gp40 (natural protein, phage Mu, UniProt P79679 1-118, looked up)
chain: MAGNQRQGVAFIRVNGMELESMEGASFTPSGITREEVTGSRVYGWKGKPRAAKVECKIPGGGPIGLDEIIDWENITVEFQADTGETWMLANAWQADEPKNDGGEISLVLMAKQSKRIA
notes: tail tube protein gp40 of myophage Mu, as it stands in the virion; Hexameric rings, 30 of them stacked in the tail; Model deposited here; source: phage Mu virions grown on E. coli (ATCC 23724), purified (PEG 8000/NaCl precipitation, CsCl gradient)
B4 was tested, and the “stoichiometry N” value [5] was 6 and the binding result (tail sheath protein gp39) was “binds”.

B5: portal protein gp29 (natural protein, phage Mu, UniProt Q9T1W5 1-512, looked up)
chain: MGRILDISGQPFDFDDEMQSRSDELAMVMKRTQEHPSSGVTPNRAAQMLRDAERGDLTAQADLAFDMEEKDTHLFSELSKRRLAIQALEWRIAPARDASAQEKKDADMLNEYLHDAAWFEDALFDAGDAILKGYSMQEIEWGWLGKMRVPVALHHRDPALFCANPDNLNELRLRDASYHGLELQPFGWFMHRAKSRTGYVGTNGLVRTLIWPFIFKNYSVRDFAEFLEIYGLPMRVGKYPTGSTNREKATLMQAVMDIGRRAGGIIPMGMTLDFQSAADGQSDPFMAMIGWAEKAISKAILGGTLTTEAGDKGARSLGEVHDEVRREIRNADVGQLARSINRDLIYPLLALNSDSTIDINRLPGIVFDTSEAGDITALSDAIPKLAAG
notes: portal protein gp29 of myophage Mu, as it stands in the virion; Dodecamer; Model deposited here; source: phage Mu virions grown on E. coli (ATCC 23724), purified (PEG 8000/NaCl precipitation, CsCl gradient); copies: 12
In the case of B5, the “stoichiometry N” value [5] is reported as 12.

B6: hub protein gp44 (natural protein, phage Mu, UniProt P08558 1-379, looked up)
chain: MSNTVTLRADGRLFTGWTSVSVTRSIESVAGYFELGVNVPPGTDLSGLAPGKKFTLEIGGQIVCTGYIDSRRRQMTADSMKITVAGRDKTADLIDCAAVYSGGQWKNRTLEQIARDLCAPYGVTVRWELSDKESSAAFPGFTLDHSETVYEALVRASRARGVLMTSNAAGELVFSRAASTATDELVLGENLLTLDFEEDFRDRFSEYTVKGYARANGAEGDDIDAKSIVSRKGTATDSDVTRYRPMIIIADSKITAKDAQARALREQRRRLAKSITFEAEIDGWTRKDGQLWMPNLLVTIDASKYAIKTTELLVSKVTLILNDQDGLKTRVSLAPREGFLVPVESDRKNRKGGDSNGGIDALVEDYYRRHPEKTPPWKE
notes: baseplate hub protein gp44 of myophage Mu, as it stands in the virion; Trimer; Model deposited here; source: phage Mu virions grown on E. coli (ATCC 23724), purified (PEG 8000/NaCl precipitation, CsCl gradient)
B6 was tested, and the “stoichiometry N” value [5] was 3.

B7: baseplate wedge protein 2 (BW2) gp47 (natural protein, phage Mu, UniProt Q9T1V2 1-360, looked up)
chain: MAYSPPTLSSLIARTEQNIEQRLPGSWPQAREKTLSAIAYAQAGLAAGCHEHISWVGRQIIPSTADEDELLEHCRFWGVRRKQATAASGPLTVTTSAATTIPAGTRWQRADGVVYSLADTIVIDRAGTTEITVTALAAGEAGNTGENTLLTLITPVACVVSDAITVKGFSGGADIESAAELLSRLEYRVQYPPFGGNQFDYVRWAREVSGVTRAWCFPTWKGGGTVGVTFVMDNRSNIFPQPADVERVADYIAGHTDPITGLIVGQPDGVNVTVFAPKAKPVNPRIYISPKTAELKQAITNAINTMFFNEVMPGGALAPSRIIRAVAGVTGLDDFEVRFPTEIQRSENTELLTAGTIEWL
notes: baseplate wedge protein 2 gp47 of myophage Mu, as it stands in the virion; Two conformers (BW2-i, BW2-o) in each of the six wedges; Model deposited here; also called BW2-i; BW2-o; source: phage Mu virions grown on E. coli (ATCC 23724), purified (PEG 8000/NaCl precipitation, CsCl gradient)
B7: binds [5]; binds [6].
